Source: publication PMC2953525, “Subtle Alterations in PCNA-Partner Interactions Severely Impair DNA Replication and Repair” (PLoS Biology, 2010)

Experiments:
[1] = system: CAN1 gene; experiment: Spontaneous mutation rate, CAN1 reporter assay, fluctuation analysis; assay type: cell-based, yeast
From the text: It was previously shown that PCNA contains another site of regulation (i.e. K164) that is modulated by ubiquitination or SUMOylation (Figure 1B) and that is crucial for the recruitment of TLS polymerases,[37]. To test whether the K164 regulatory site is active in the PCNA mutant strains, we examined the spontaneous mutation rate in these strains (Table 1). Increase in spontaneous mutation rate can indicate the recruitment of TLS polymerases to PCNA through K164 ubiquitination,[37]. Alternatively, these mutants can indirectly affect the spontaneous mutation rate by reducing DNA replication processivity and causing replication fork stalling, thereby leading to TLS recruitment. These mutants can also indirectly alter Pol-δ or Pol-ε proofreading leading to TLS recruitment. We measured the spontaneous mutation rate using the CAN1 reporter assay by monitoring the ability of the PCNA mutant strains to grow in the presence of canavanine, a toxic analogue of arginine. […] To examine whether Polζ, the major TLS polymerase,[37], is recruited in vivo to PCNA mutants showing increased affinity for Rad27 and Pol32 (pol30-Rad27E6 and pol30-Pol32E5, Table 1) upon K164 ubiquitination, we measured the spontaneous mutation rates of these mutant strains on the background of either mutated rev3 encoding the catalytic subunit of Polζ or mutated rad18 encoding the K164 ubiquitin ligase or K164R mutation (Figure 7, Table 2).
Novel haploids containing PCNA mutants were generated using the plasmid shuffling method. Briefly, a pol30::KanMX magic marker heterozygote diploid strain BY4743 (Open Biosystem) was transformed with plasmid pRS316-POL30. Following dissection of the diploid, a haploid containing the CAN+ gene and plasmid pRS316-POL30 as a sole source of PCNA was generated. This host strain was transformed with selected pRS315-pol30 mutants, plated on SC-Ura-Leu plates, followed by replica plating to SC-Leu+5FOA plates. Haploids, containing PCNA mutants as a sole source, were further verified by plating on either SC-Leu or SC-Ura plates. For testing selected PCNA mutants, a haploid containing rad27::HYG, rad30::HYG, pol32::HYG, msh6::HYG, or ung1::HYG were generated using plasmid pAG32 by conventional genetic approaches. Growth of the PCNA mutant strains in the presence of 120 mM HU (Toronto Research Chemicals) or 0.02% MMS (Sigma) was performed as described. To examine the effects of partner overexpression on pol30 mutant strains, these strains were transformed with various plasmids containing GST-tagged PCNA partner encoding genes under the control of a GAL1/10 inducible promoter, as previously described. Overnight cultures were plated in serial dilutions on SC-Ura containing either glucose or galactose with or without DNA-damaging agents, as described above.
The mutation rates for the different pol30 mutant strains described in this study were determined by fluctuation test analysis using the Lea and Coulson method,[48]. The different strains were plated as single colonies on SC-Leu plates and allowed to grow for 3 d at 30°C. At least 25 single colonies from each strain were excised from the plate and resuspended in 1 ml of sterile water to an O.D600 of 0.7. Appropriate dilutions of the cells were then plated on SC-Leu and SC-Leu-Arg+canavanine ([…]) to obtain the number of viable cells (Nt) and the number of canavanine-resistant cells (r), respectively. Using the Lea and Coulson method, the number of mutations (m) per colony was derived from the number of canavanine resistant-colonies (r) across parallel cultures, using the following equation: […]. The m values were then used to calculate the mutation rate, M, using the following equation: M = m/Nt, where Nt is the average number of viable cells per plating. The different M values were sorted to obtain the median. […]

[2] = system: Rad27; experiment: Yeast two hybrid (Y2H) analysis of PCNA-partner interaction; assay type: binding; settings: YRG2 strain, growth on selective agar plates lacking histidine; growth similar to WT PCNA denoted as 1
Protocol: (§1) For the Y2H assay, we used the YRG2 host strain, shown to be highly efficient in coupling the strength of protein-protein interactions with growth on media lacking histidine. Selected PCNA mutants were characterized for their ability to bind each of 12 main PCNA partners to obtain specificity profiles (Table 1, Table S1, and Figures S4–S5). […] However, in some cases a strong trade-off between the bindings of different partners was observed.
(§2) Y2H analysis was performed using the Yeast Two Hybrid Phagemid vector kit (Stratagene), following the manufacturer's instructions. The pAD-PCNA-WT/mutant plasmids were used as bait while plasmids encoding 12 different PCNA partners (Table 1 and Table S1) were used as prey. The YRG2 host strain (Stratagene) was cotransformed with pAD-PCNA WT/mutant and pBD-partner plasmids in all possible combinations using the LiAC method. Single transformants were grown in liquid SC-Leu-Trp to O.D600 10, washed twice with DDW, and diluted to an initial OD600 of 0.3. A series of 10-fold serial dilutions was then spotted onto selective SC-Leu-Trp-His plates and incubated at 30°C for 3 d. For quantitative Y2H, the generation time of the indicated mutants and their respective partners were calculated from their growth curves in liquid SC-Leu-Trp-His media. Cells were grown overnight in SC-Leu-Trp, washed twice with ddH2O, and diluted by a factor of 1∶50 into 10 ml of pre-warmed SC-Leu-Trp-His. O.D600 measurements of the cultures were taken at the indicated time; the generation time (τ) was calculated from the growth curves according to the equation ODt = OD0×2^t/τ. The generation time calculated for each culture is an average of at least 3 independent experiments.

[3] = system: Ung1; experiment: as above; assay type: binding; settings: YRG2 strain, growth on selective agar plates lacking histidine; growth similar to WT PCNA denoted as 1
Protocol: as §1, §2

[4] = system: Pol32; experiment: as above; assay type: binding; settings: footnote c: generation time in liquid selective media lacking histidine relative to cells expressing WT PCNA; average of at least 3 independent experiments
Protocol: as §1, §2

[5] = system: Msh6; experiment: as above; assay type: binding; settings: YRG2 strain, growth on selective agar plates lacking histidine; growth similar to WT PCNA denoted as 1
Protocol: as §1, §2

[6] = system: Rad30; experiment: as above; assay type: binding; settings: YRG2 strain, growth on selective agar plates lacking histidine; growth similar to WT PCNA denoted as 1
Protocol: as §1, §2

B1: pol30-Pol32E5: PCNA mutant evolved for Pol32, IDCL sequence DADNDFLKISEL (protein)
chain: MLEAKFEEASLFKRIIDGFKDCVQLVNFQCKEDGIIAQAVDDSRVLLVSLEIGVEAFQEYRCDHPVTLGMDLTSLSKILRCGNNTDTLTLIADNTPDSIILLFEDTKKDRIAEYSLKLMDADNDFLKISELQYDSTLSLPSSEFSKIVRDLSQLSDSINIMITKETIKFVADGDIGSGSVIIKPFVDMEHPETSIKLEMDQPVDLTFGAKYLLDIIKGSSLSDRVGIRLSSEAPALFQFDLKSGFLQFFLAPKFNDEE
modifications: left off: Gal4 activation domain, end not stated, kept
[1]; Table 1, compared to the WT POL30 strain
  Spontaneous Mutation Rate Can^R (Fold Increase): 13.3 fold
[1]; Table 2
  Fold Increase Relative to WT (mutation rate, CAN1 locus): 13 fold
[2]
  Binding of PCNA Mutants to Target Partners: Rad27 (Y2H): 1
[3]
  Binding of PCNA Mutants to Target Partners: Ung1 (Y2H): 1
[4]
  Binding of PCNA Mutants to Target Partners: Pol32, fold increase or decrease (quantitative Y2H): 1.5 ^c fold
[5]
  Binding of PCNA Mutants to Target Partners: Msh6 (Y2H): 1
[6]
  Binding of PCNA Mutants to Target Partners: Rad30 (Y2H): 1
